Source: patent publication US20110065645A1, “Compositions and Methods for Modulating Neuron Degeneration and Neuron Guidance” (The Regents of the University of California, priority 2009, published 2011)
“Also recorded” adds a separate entry of the source.

Tests used:
Fzd3-EGFP (mouse) = Fzd3-EGFP (mouse) (UniProt Q61086); test: cell-based or functional assay
PKA = test: Western blot of activated phospho-PKA (Thr197) in dissociated commissural neurons; format: cell-based, rat; settings: Shh-N 2.5 μg/ml for one hour; KT5720 25 μM for 15 minutes
Protocol: To confirm that PKA activity can be reduced in commissural neurons exposed to Shh, we treated dissociated spinal cord commissural neurons with Shh and analyzed the level of activated PKA. 24 hr after plating, commissural neurons were serum starved overnight and then treated with 2.5 μg/ml (150 nM) of Shh-N recombinant protein (R&D) for one hour prior to lysate collection. Forskolin (25 μM), and the PKA inhibitor, KT5720 (25 μM) were added to the commissural neuron culture as controls for 15 minutes before lysis. We then tested these lysates for levels of activated PKA with an antibody that specifically recognizes an activated form of the catalytic domain of PKA (phosphorylated at Thr197).
Dissociated commissural neuronal culture. Spinal cords were isolated from rat E13 embryos and commissural neurons were dissociated as previously described.^(8) In brief, embryos were treated with Dispase I (0.25 mg/ml; D4818, Sigma) for 5 minutes prior isolation of spinal cords, followed by collection of spinal cord dorsal domains by microdissection and incubation with Trypsin (1 mg/ml; T47-99, Sigma) for 10-12 min in a 37° C. water bath. The tissue was then triturated with flamed glass pipettes and a single cell suspension was plated on poly-D-lysine (PDL; 20 μg/ml) and laminin (10 μg/ml) coated coverslips or 12 well plates (Corning). More than 90% cells in these cultures express TAG-1, a marker for spinal cord commissural neurons (FIG. 35B). 10^5 dissociated cells were plated on PDL/laminin coated coverslips and cultured for 24 hrs before processed for immunohistochemistry as described above. For Western blot analysis, 10^6 dissociated cells were plated on PDL/laminin coated 12-well tissue culture plates and cultured initially for 24 hrs in dorsal explant media (replenished daily) then changed to low serum medium overnight prior to treatments. […]

[1] = test system: pre-crossing commissural axons; test: Precrossing commissural explant assay in collagen gel; format: cell-based, rat; settings: collagen gel containing Netrin-1 and Shh expressing COS-7 cells
From the text: Shh activates Semaphorin repulsion in commissural axons. We investigated the mechanisms by which Semaphorin repulsion in commissural axons is switched on during spinal cord midline pathfinding. Commissural neuron cell bodies are located in the dorsal spinal cord and initially extend axons to the ventral midline, the floor plate, in the process of several days (from late E8.9/early E9.5 in mouse and late E10 and E11 in rats till at least E12.5 in mouse and E14 in rat). The commissural axons in the rostral (anterior) spinal cord differentiate and their axons develop earlier than their caudal (posterior) counterparts. At each axis level, the more dorsal populations tend to differentiate and extend axons later than the ventral population in the dorsal spinal cord during this stage of development. […] To quantify these effects, the total length of axons extending towards (proximal) or away (distal) from cell aggregates (FIG. 31B) was calculated in each experiment as the ratio of axons growing proximally (P) divided by axons growing distally (D) (FIG. 31i). […]
Precrossing commissural explant assay. […] For quantification the total length of axon bundle was measured in the proximal (P) and distal (D) quadrants as depicted in FIG. 31B. […]

Fzd3-mCherry (mouse) = Fzd3-mCherry (mouse) (UniProt Q61086); test: cell-based or functional assay
β-catenin = β-catenin immunostaining in commissural axon growth cones; format: cell-based; settings: bath application; LiCl 2 mM
From the text: To understand how atypical PKC/Par pathway regulates axon guidance, we set out to determine the subcellular localization of aPKC, their substrates and downstream cellular effectors. […] Thus, our high-resolution confocal imaging detects a tendency of β-catenin being concentrated to one side of the growth cone (FIG. 9A). It is possible that there is low level of Wnt proteins in the culture (many neurons express Wnts). […] Therefore, it is also possible that intrinsic aPKC signaling can create chirality within the growth cone with out extrinsic signals. Such intrinsic polarity may then robustly regulate cellular morphology upon directional instructions from the environment such as a Wnt gradient. It is well known that GSK3β phosphorylates β-catenin, which then leads to proteosome-mediated degradation of β-catenin. And it is also known that GSK3β is phosphorylated and inhibited by PKCζ^(1,2). Therefore, inhibiting GSK3β or the proteosome activity generally should increase β-catenin level throughout the growth cone, canceling the asymmetry. […] We are now testing the hypothesis that Wnt proteins may locally activate PKCζ, which then inhibits GSK3β and locally stabilizes β-catenin, which is part of the asymmetric cellular mechanism leading to directional choice of a growth cone. We examine the localization of β-catenin in post-crossing commissural axon growth cones in the “post-crossing” assay and “open-book” assays.

TH axons = test: mdDA explant assay with Wnt-expressing cell clumps, anti-TH staining; format: cell-based; settings: embryonic mdDA explants from ventral midbrain
From the text: FIG. 7. Multiple Wnts attract TH axons in explant assays. FIG. 7 depicts histogram showing that embryonic mdDA explants dissected out from the ventral midbrain and cultured with cell clumps expressing various Wnts.
3c: Use of explant assays to test the effects of Wnts on mdDA and 5-HT axon growth and guidance. To directly address whether Wnts regulate the guidance of these monoaminergic axons, we use explant assays to test the function of the identified Wnts and determine whether they are attractive or repulsive. […] We plan to continue test additional Wnts especially those which are expressed in the brainstem and the forebrain targets using the same assay.

Sequence of Fzd3-EGFP (mouse) (Q61086 23-666): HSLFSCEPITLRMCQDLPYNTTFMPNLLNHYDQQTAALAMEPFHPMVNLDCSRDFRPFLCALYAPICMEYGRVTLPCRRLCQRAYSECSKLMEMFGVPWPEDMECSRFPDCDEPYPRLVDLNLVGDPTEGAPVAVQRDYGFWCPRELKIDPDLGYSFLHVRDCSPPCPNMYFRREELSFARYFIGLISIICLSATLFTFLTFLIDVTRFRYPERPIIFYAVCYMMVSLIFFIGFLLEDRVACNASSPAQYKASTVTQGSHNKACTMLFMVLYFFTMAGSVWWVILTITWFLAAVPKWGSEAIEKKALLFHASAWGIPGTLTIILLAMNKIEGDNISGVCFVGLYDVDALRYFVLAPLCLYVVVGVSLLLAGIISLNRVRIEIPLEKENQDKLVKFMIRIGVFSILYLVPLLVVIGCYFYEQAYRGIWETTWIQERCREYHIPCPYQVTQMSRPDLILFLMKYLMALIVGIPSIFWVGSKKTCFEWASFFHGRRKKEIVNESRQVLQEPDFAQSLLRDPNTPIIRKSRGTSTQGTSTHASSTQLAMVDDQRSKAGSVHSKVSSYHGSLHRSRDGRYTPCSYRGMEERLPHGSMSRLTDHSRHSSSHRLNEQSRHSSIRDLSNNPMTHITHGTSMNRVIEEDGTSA
Sequence of Fzd3-mCherry (mouse) (Q61086 23-666): as above

Molecule	level of activated PKA (PKA)	attraction of TH axons (TH axons)	further results
recombinant Wnt5a (R&D Systems) (ligand)			commissural axon length after 24 hours on Wnt5a-coated coverslips (Fzd3-EGFP (mouse)): 36%
c1ccc2c(Oc3nc(Nc4ccc(N5CCOCC5)cc4)c4ncn(C5CCCCC5)c4n3)cccc2c1 [Purmorphamine, reference compound]	reduce the level of activated PKA		
Shh-N: recombinant mouse Sonic Hedgehog, amino-terminal peptide (R&D); also secreted by transfected COS-7 cells	reduce the level of activated PKA; also recorded: significant reduction of activated PKA		response of pre-crossing commissural axons to Semaphorins [1]: repelled by Sema3B- and Sema3F-secreting cell clumps
Dvl1-EGFP (from UniProt P51141 1-695)			Fzd3 level at the cell membrane (surface biotinylation, avidin IP, anti-mCherry IB) in HEK293T cells (Fzd3-mCherry (mouse)): 3 fold
Wnt3a: purified Wnt3a protein; also expressed by cell clumps in explant assays (protein, UniProt P56704 19-352, looked up) Protein Wnt-3a: SYPIWWSLAVGPQYSSLGSQPILCASIPGLVPKQLRFCRNYVEIMPSVAEGIKIGIQECQHQFRGRRWNCTTVHDSLAIFGPVLDKATRESAFVHAIASAGVAFAVTRSCAEGTAAICGCSSRHQGSPGKGWKWGGCSEDIEFGGMVSREFADARENRPDARSAMNRHNNEAGRQAIASHMHLKCKCHGLSGSCEVKTCWWSQPDFRAIGDFLKDKYDSASEMVVEKHRESRGWVETLRPRYTYFKVPTERDLVYYEASPNFCEPNPETGSFGTRDRTCNVSSHGIDGCDLLCCGRGHNARAERRREKCRCVFHWCCYVSCQECTRVYDVHTCK		strongest effect	β-catenin level and asymmetry in the growth cone (β-catenin): increased the levels of β-catenin throughout the growth cone
Wnt7b: Wnt family protein expressed by cell clumps in the TH axon explant assay (protein, UniProt P56706 25-349, looked up) Protein Wnt-7b: ALSSVVALGANIICNKIPGLAPRQRAICQSRPDAIIVIGEGAQMGINECQYQFRFGRWNCSALGEKTVFGQELRVGSREAAFTYAITAAGVAHAVTAACSQGNLSNCGCDREKQGYYNQAEGWKWGGCSADVRYGIDFSRRFVDAREIKKNARRLMNLHNNEAGRKVLEDRMQLECKCHGVSGSCTTKTCWTTLPKFREVGHLLKEKYNAAVQVEVVRASRLRQPTFLRIKQLRSYQKPMETDLVYIEKSPNYCEEDAATGSVGTQGRLCNRTSPGADGCDTMCCGRGYNTHQYTKVWQCNCKFHWCCFVKCNTCSERTEVFTCK		attracts the TH-positive neuron axons	
